Experimental data: patent US20240116985A1, “STAPLED PEPTIDES AND METHODS THEREOF” (priority 2020, published 2024)
Starred links: 1 amine or outer side, 2 acyl side, 3 side chain; linkers in the order of their positions; H or OH if unused. Positions of bridges follow the written chain, without caps; N, C: chain ends. Non-standard residues stand in square brackets, D forms with d. Primed or numbered codes have the meaning given here. (SO2MorphCH2)TriAzDap = (S)-2-amino-3-(4-((1,1-dioxidothiomorpholino)methyl)-1H-1,2,3-triazol-1-yl)propanoic acid, O=C([C@H](Cn1cc(CN2CCS(=O)(=O)CC2)nn1)N[*:1])[*:2]; (CH2Ppz)TriAzDap = (S)-2-amino-3-(4-(piperazin-1-ylmethyl)-1H-1,2,3-triazol-1-yl)propanoic acid, O=C([C@H](Cn1cc(CN2CCN([*:3])CC2)nn1)N[*:1])[*:2]; PyrS2(3) = (S)-3-amino-1-((pent-4-en-1-yloxy)carbonyl)pyrrolidine-3-carboxylic acid, stapling residue, C=CCCCOC(=O)N1CC[C@@](N[*:1])(C(=O)[*:2])C1; PyrS2″ = (S)-3-amino-1-((pent-4-en-1-yloxy)carbonyl)pyrrolidine-3-carboxylic acid (stapling residue), C=CCCCOC(=O)N1CC[C@@](N[*:1])(C(=O)[*:2])C1; (CH2NMe2)TriAzDap = (S)-2-amino-3-(4-((dimethylamino)methyl)-1H-1,2,3-triazol-1-yl)propanoic acid, CN(C)Cc1cn(C[C@H](N[*:1])C(=O)[*:2])nn1; (MorphCH2)TriAzDap = (S)-2-amino-3-(4-(morpholinomethyl)-1H-1,2,3-triazol-1-yl)propanoic acid, O=C([C@H](Cn1cc(CN2CCOCC2)nn1)N[*:1])[*:2]; B5(18) = 2,2-bis(4-pentenyl)glycine (2-amino-2-(pent-4-en-1-yl)hept-6-enoic acid), stitching residue, C=CCCCC(CCCC=C)(N[*:1])C(=O)[*:2]; B5(4) = 2,2-bis(4-pentenyl)glycine = 2-amino-2-(pent-4-en-1-yl)hept-6-enoic acid (stitching residue), C=CCCCC(CCCC=C)(N[*:1])C(=O)[*:2]; B5(5) = 2,2-bis(4-pentenyl)glycine, 2-amino-2-(pent-4-en-1-yl)hept-6-enoic acid (stitching residue), C=CCCCC(CCCC=C)(N[*:1])C(=O)[*:2]; TfeGA = (S)-2-amino-3-((carboxymethyl)(2,2,2-trifluoroethyl)amino)propanoic acid, O=C([C@H](CN(CC(=O)[*:3])CC(F)(F)F)N[*:1])[*:2]; PyrS2 = (S)-3-amino-1-((pent-4-en-1-yloxy)carbonyl)pyrrolidine-3-carboxylic acid, C=CCCCOC(=O)N1CC[C@@](N[*:1])(C(=O)[*:2])C1; PyrS = (S)-1-((allyloxy)carbonyl)-3-aminopyrrolidine-3-carboxylic acid, C=CCOC(=O)N1CC[C@@](N[*:1])(C(=O)[*:2])C1; MorphAsn = (S)-2-amino-4-morpholino-4-oxobutanoic acid, O=C(C[C@H](N[*:1])C(=O)[*:2])N1CCOCC1; B5 = 2-amino-2-(pent-4-en-1-yl)hept-6-enoic acid, C=CCCCC(CCCC=C)(N[*:1])C(=O)[*:2]; B6 = 2-amino-2-(hex-5-en-1-yl)oct-7-enoic acid, C=CCCCCC(CCCCC=C)(N[*:1])C(=O)[*:2]; Me2Asn = listed as N4-methyl-L-asparagine, CNC(=O)C[C@H](N[*:1])C(=O)[*:2]; MeAsn = N4-methyl-L-asparagine, CNC(=O)C[C@H](N[*:1])C(=O)[*:2]; MeGln = N5-methyl-L-glutamine, CNC(=O)CC[C@H](N[*:1])C(=O)[*:2]; Phe(3-COOH) = N[C@@H](Cc1cccc(C(=O)O)c1)C(=O)O; Phe(2-CF3) = N[C@@H](Cc1ccccc1C(F)(F)F)C(=O)O; Phe(2-Cl) = N[C@@H](Cc1ccccc1Cl)C(=O)O; Phe(2-Me) = Cc1ccccc1C[C@H](N)C(=O)O; Bta = N[C@@H](Cc1csc2ccccc12)C(=O)O; αAllylPro = C=CC[C@@]1(C(=O)O)CCCN1; tBuAla = CC(C)(C)C[C@H](N)C(=O)O; 3Thi = N[C@@H](Cc1ccsc1)C(=O)O; Cha = N[C@@H](CC1CCCCC1)C(=O)O; S8 = C=CCCCCCC[C@](C)(N)C(=O)O; 4ClBztA = not defined here; hSer = N[C@@H](CCO)C(=O)O; Ac5c = NC1(C(=O)O)CCCC1; Ac3c = NC1(C(=O)O)CC1; Aib = CC(C)(N)C(=O)O

target: full-length beta-Catenin (Uniprot ID P35222) (Homo sapiens (Human)) (UniProt P35222); assay: fluorescence polarization competition; 10 nM full-length beta-catenin, competitor 10 nM 5FAM-TCF4(10-53)
Sequence (P35222 whole entry): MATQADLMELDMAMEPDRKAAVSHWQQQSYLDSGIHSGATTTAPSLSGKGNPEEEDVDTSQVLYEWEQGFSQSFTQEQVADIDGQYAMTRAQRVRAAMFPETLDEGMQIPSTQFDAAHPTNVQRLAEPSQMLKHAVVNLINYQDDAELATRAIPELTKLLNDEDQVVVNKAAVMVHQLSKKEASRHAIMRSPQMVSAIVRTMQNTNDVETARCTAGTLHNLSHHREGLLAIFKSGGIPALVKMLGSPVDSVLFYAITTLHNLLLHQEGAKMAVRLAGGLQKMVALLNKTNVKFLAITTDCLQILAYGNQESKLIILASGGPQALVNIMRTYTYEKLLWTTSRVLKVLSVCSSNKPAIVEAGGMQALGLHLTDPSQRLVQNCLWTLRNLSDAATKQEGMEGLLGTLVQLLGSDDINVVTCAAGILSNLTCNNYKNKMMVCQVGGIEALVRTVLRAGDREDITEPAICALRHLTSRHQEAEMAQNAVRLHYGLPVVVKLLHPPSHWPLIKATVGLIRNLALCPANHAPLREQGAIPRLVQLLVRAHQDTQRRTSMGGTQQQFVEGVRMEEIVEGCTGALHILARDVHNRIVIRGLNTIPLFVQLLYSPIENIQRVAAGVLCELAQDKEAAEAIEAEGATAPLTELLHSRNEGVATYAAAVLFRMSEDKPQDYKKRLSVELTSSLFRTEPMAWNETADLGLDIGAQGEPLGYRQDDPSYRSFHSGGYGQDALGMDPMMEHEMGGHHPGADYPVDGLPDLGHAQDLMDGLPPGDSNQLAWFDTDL

| EC50 | IC50 | Binder |
| --- | --- | --- |
| 2720 nM |  | Ac-[αAllylPro]DA[B5(4)]DDAA[Phe(2-Me)]A[S8]F[Bta]Q-NH2 (staple 1-4, 4-11; also: earlier-eluting staple isomer) [I-365] |
|  | 19 nM | Ac-[αAllylPro]D[tBuAla][B5(18)]D[Phe(3-COOH)]AAFA[PyrS2(3)][Phe(2-Cl)][Bta]S-NH2 (staple 1-4, 4-11) [I-1849] |
|  | 17 nM | Ac-[αAllylPro]D[tBuAla][B5(18)]D[Phe(3-COOH)]AAFV[PyrS2(3)][Phe(2-Cl)][Bta]S-NH2 (staple 1-4, 4-11) [I-1850] |
|  | 25 nM | Ac-[αAllylPro]D[tBuAla][B5(18)]D[Phe(3-COOH)]AAFL[PyrS2(3)][Phe(2-Cl)][Bta]A-NH2 (staple 1-4, 4-11) [I-1851] |
|  | 48 nM | Ac-[αAllylPro]D[tBuAla][B5(18)]D[Phe(3-COOH)]AAFL[PyrS2(3)][Phe(2-Cl)][Bta]-NH2 (staple 1-4, 4-11) [I-1852] |
|  | 114 nM | Ac-[αAllylPro]N[tBuAla][B5(18)]D[Phe(3-COOH)]AAFL[PyrS2(3)][Phe(2-Cl)][Bta]S-NH2 (staple 1-4, 4-11) [I-1853] |
|  | 849 nM | Ac-[αAllylPro]D[tBuAla][B5(5)]D[TfeGA]AA[(CH2NMe2)TriAzDap]L[PyrS2″][3Thi][Bta]Q-NH2 (staple 1-4, 4-11; also: separately listed staple isomer composition) [I-1855] |
|  | 4020 nM | Ac-[αAllylPro]D[tBuAla][B5(5)]D[TfeGA]AA[(CH2Ppz)TriAzDap]L[PyrS2″][3Thi][Bta]Q-NH2 (staple 1-4, 4-11; also: separately listed staple isomer composition) [I-1857] |
|  | 1110 nM | Ac-[αAllylPro]D[tBuAla][B5(5)]D[TfeGA]AA[(MorphCH2)TriAzDap]L[PyrS2″][3Thi][Bta]Q-NH2 (staple 1-4, 4-11; also: separately listed staple isomer composition) [I-1858] |
|  | 1110 nM | Ac-[αAllylPro]D[tBuAla][B5(5)]D[TfeGA]AA[(MorphCH2)TriAzDap]L[PyrS2″][3Thi][Bta]Q-NH2 (staple 1-4, 4-11; also: separately listed staple isomer composition) [I-1859] |
|  | 512 nM | Ac-[αAllylPro]D[tBuAla][B5(5)]D[TfeGA]AA[(SO2MorphCH2)TriAzDap]L[PyrS2″][3Thi][Bta]Q-NH2 (staple 1-4, 4-11) [I-1860] |
|  | 36 nM | Ac-[αAllylPro]D[tBuAla][B5(4)]D[Phe(3-COOH)]QAFL[PyrS2″][Phe(2-CF3)][7ClBztA]A-NH2 (staple 1-4, 4-11) [I-2487] |
|  | 29 nM | Ac-[αAllylPro]D[tBuAla][B5(4)]D[Phe(3-COOH)]QAFL[PyrS2″][Phe(2-CF3)][7FBztA]A-NH2 (staple 1-4, 4-11) [I-2489] |
|  | 49 nM | Ac-[αAllylPro]D[tBuAla][B5(4)]D[Phe(3-COOH)]QAFL[PyrS2″][Phe(2-CF3)][4ClBztA]A-NH2 (staple 1-4, 4-11; reading uncertain) [I-2491] |
|  | 174 nM | Ac-[αAllylPro]D[tBuAla][B5(4)]NT[Ac3c]AFN[PyrS2″][3Thi][Bta]Q-NH2 (staple 1-4, 4-11) [I-2492] |
|  | 267 nM | Ac-[αAllylPro]D[tBuAla][B5(4)]NT[Ac5c]AFN[PyrS2″][3Thi][Bta]Q-NH2 (staple 1-4, 4-11) [I-2493] |
|  | 102 nM | Ac-[αAllylPro]D[tBuAla][B5]NT[Aib]AFN[PyrS2][3Thi][Bta][Me2Asn]-NH2 (staple 1-4, 4-11) [I-2494] |
|  | 95 nM | Ac-[αAllylPro]D[tBuAla][B5]NT[Aib]AFN[PyrS2][3Thi][Bta][MeAsn]-NH2 (staple 1-4, 4-11) [I-2495] |
|  | 106 nM | Ac-[αAllylPro]D[tBuAla][B5]NT[Aib]AF[Me2Asn][PyrS2][3Thi][Bta]N-NH2 (staple 1-4, 4-11) [I-2496] |
|  | 105 nM | Ac-[αAllylPro]D[tBuAla][B5]NT[Aib]AF[MeAsn][PyrS2][3Thi][Bta]N-NH2 (staple 1-4, 4-11) [I-2497] |
|  | 449 nM | Ac-[αAllylPro]N[Cha][B5]DQ[hSer]AFL[PyrS2]F[Bta][MorphAsn]-NH2 (staple 1-4, 4-11) [I-2498] |
|  | 154 nM | Ac-[αAllylPro]N[Cha][B5]DQ[Me2Gln]AFL[PyrS2]F[Bta][MorphAsn]-NH2 (staple 1-4, 4-11) [I-2501] |
|  | 214 nM | Ac-[αAllylPro]N[Cha][B5]DQ[MeGln]AFL[PyrS2]F[Bta][MorphAsn]-NH2 (staple 1-4, 4-11) [I-2502] |
|  | 1310 nM | Ac-[αAllylPro]N[Cha][B5]DQTAFL[PyrS2]F[Bta][MorphAsn]-NH2 (staple 1-4, 4-11) [I-2503] |
|  | 210 nM | Ac-[αAllylPro]N[Cha][B5]DQQAFL[PyrS2]F[Bta][MorphAsn]-NH2 (staple 1-4, 4-11) [I-2504] |
|  | 332 nM | Ac-[αAllylPro]D[tBuAla][B6]D[Phe(3-COOH)]QAFL[PyrS][Phe(2-CF3)][Bta]A-NH2 (staple 1-4, 4-11; also: earlier-eluting staple isomer composition) [I-2506] |
|  | 168 nM | Ac-[αAllylPro]D[tBuAla][B6]D[Phe(3-COOH)]QAFL[PyrS][Phe(2-CF3)][Bta]A-NH2 (staple 1-4, 4-11; also: later-eluting staple isomer composition) [I-2507] |

target: full-length beta-Catenin (Uniprot ID P35222) (Homo sapiens (Human)) (UniProt P35222); assay: fluorescence polarization competition; peptide titrated against 10 nM full-length beta-catenin + 10 nM 5FAM-TCF4(10-53)

| IC50 | Binder |
| --- | --- |
| 2720 nM | Ac-[αAllylPro]DA[B5(4)]DDAA[Phe(2-Me)]A[S8]F[Bta]Q-NH2 (staple 1-4, 4-11; also: earlier-eluting staple isomer) [I-365] |
